Reference: PMC13079917

Target: Monoclonal antibody L9 (human IgG)
Assay: KinExA (kinetic exclusion assay); equilibrium in solution; antigen serially diluted into a constant concentration of antibody (human IgG as constant binding partner); equilibrated 24 h; room temperature (about 25 °C); 1x HBS-EP+ pH 7.4 with BSA at 1 mg/mL; antigen cross-linked to beads as capturing reagent; n-curve analysis

Chain of Monoclonal antibody L9 (human IgG) (heavy, as listed by the source, chain 1 of 2): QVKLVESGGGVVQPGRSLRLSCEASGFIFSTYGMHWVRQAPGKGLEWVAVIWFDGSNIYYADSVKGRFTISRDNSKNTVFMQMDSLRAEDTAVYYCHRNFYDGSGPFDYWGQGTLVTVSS
Chain of Monoclonal antibody L9 (human IgG) (light, as listed by the source, chain 2 of 2): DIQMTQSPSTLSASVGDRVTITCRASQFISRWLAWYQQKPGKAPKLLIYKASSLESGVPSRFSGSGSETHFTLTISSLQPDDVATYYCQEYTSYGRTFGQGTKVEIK

Question: How did the Kd turn out when NANPNVDPNANPNVDP (modifications not checked) [double-NPNV peptide] was run?
Answer: Its Kd is 4.56 nM.

Question: Which Kd does the source give for NANPNVDPNANPNVDPNANPNVDP (modifications not checked) [triple-NPNV peptide] here?
Answer: Its Kd is 0.059 nM.
